We go through 1 protein from PMC6176637 (Proceedings of the National Academy of Sciences of the …, 2018).

This series deals with the molecule itself. The series is described as follows: cryo-EM structure.

B1: full-length hemagglutinin (HA) from A/duck/Alberta/35/76(H1N1) virus (natural protein)
chain 1: not shown
chain 2: not shown
One may read the stoichiometry N as a count of units in the complex or per binding partner. As to B1, the “stoichiometry N” value came out at 3.
